In the RNAGym collection of RNA variant scans (doi:10.1073/pnas.2313332121):

B1: TPR t1 (parent)
chain: GACCAAUCUGCCCUCAGAGCUCGAGAACAUCUUCGGAUGCAGAGGAGGCAGGCUUCGGUGGCGCGAUAGCGCCAACGUCCUCAACCUCCAAUGCAUCCCACCACAUGAUGAUGCCUGAAGAGCCUUGGUUUUUUG

Variants of: B1
Test: polymerase ribozyme fitness, log enrichment relative to wild type (log ratio); higher = more active; in vitro selection for triplet polymerase activity
Summary of the method: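 PCR was used to build mutant libraries for each subunit of a heterodimeric triplet polymerase ribozyme, which were then transcribed. A single in vitro selection round, in triplicate, used a frozen incubation at −7 °C and recovered extended constructs by gel excision, streptavidin beads and RT-PCR. Fitness is the logarithm of genotype enrichment relative to wild-type enrichment, averaged over replicates with inverse-variance weights. The logarithm is base 2, and after Illumina sequencing only genotypes with ≥10 input reads and ≥1 read per output were kept.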
For GACCAAUCAGCCCUCAGAGCUCGAGAACAUCUUCGGAUGCAGAGGAGGCAGGCUUCGGUGGCGCGAUAGCGCCAACGUCCUCAACCUCCAAUGCAUCCCACCACAUGAUGAUGCCUGGAGAGCCUUGGUUUUUUG [U9A A118G], the “polymerase ribozyme fitness (log ratio)” value was 0.108. For GACCAAUCAGCCCUCAGAGCUCGAGAACAUCUUCGGAUGCAGUGGAGGCAGGCUUCGGUGGCGCGAUAGCGCCAAAGUCCUCAAGCUCCAAUGCAUCCCACCACAUGAUGAUGCCUGAAAAGCCUUGGUCUUUUG [U9A A43U C76A C85G G120A U130C], the “polymerase ribozyme fitness (log ratio)” value was -1.48. With GACCAAUCAGCACUCAGAGCUCGAGAACAUCUUCGGAUGCAGAGGAGGCAGGCUUCGGUGGCGCGAUAGCGCCAACGUCCUCAACCUCCAAUGCAUCCCACCACAUGAUGAUGCCUGAAGAGCUUUGGUUUUUUG [U9A C12A C124U] the “polymerase ribozyme fitness (log ratio)” value was 2.01. In the case of GACCAAUCAGCCCUCAGAGCUCGAGAACAUCUUCGGAUGCAGAGGAGGCUGGCUUCGGUGGGGCGAUAGCGCCAACGUCCUCAACCUCCAAUGCAUCCCACCACAUGAUGAUGCCUGAAGAGCCUUGGUUUUUUG [U9A A50U C62G], the “polymerase ribozyme fitness (log ratio)” value is reported as -2.77. In the case of GACCAAUCAGGCCUGAGAGCUCGAGAACAUCUUCGGAUGCAGAGGAGGCAGGCUUCGGUGGCGCGAUAGCGCCAACGUCCUCAACCUCCACUACAUCCCACCACAUGAUGAUGCCUGAAGAGCCUUGGUUUUUUG [U9A C11G C15G A91C G93A], the “polymerase ribozyme fitness (log ratio)” value is reported as -3.49. With GACCAAUCAGCAAUCAGGGCUCGAGAACAUCUUCGGAUGCAGAGGAGGCAGGCUUCGGUGGCGCGAUAGCGCCAACGUCCUCAACCUCCAAUGCAUCCCUCCACAUGAUGAUGCCUGAAGAGCCUUGGUUUUUUG [U9A C12A C13A A18G A100U] the “polymerase ribozyme fitness (log ratio)” value was -6.25. In the case of GACCAAUCAGCCCUCAGAGCUCGAGAACAUCUUCGGAUGCAGAGGUGGCAGGCUUCGGUGGCGCGAUAGCGCCCACGUCCUCAACCUGCAAUGCAUCCCACCACAUGAUGAUGCCUGAAGAGCCUUGGUUUUUUG [U9A A46U A74C C88G], the “polymerase ribozyme fitness (log ratio)” value is reported as -2.48. With GACCAAUCAGCCCUCAGAGCUCGAGAACAUCUUCGGAUGCAGAGGUGGCAGGCUUCGGCGGCGCGAUAGCGCCAACGACCUCAACCUCGAAUGCAUCCCACCACAUGAAGAUGCCUGAAGAGCCUUGGUUUUUUG [U9A A46U U59C U78A C89G U109A] the “polymerase ribozyme fitness (log ratio)” value was -7.76. For GACCAAUCAGCACUCAGAGCUCGAGAACAUCUUCGGAUGCAGAGGAGGCAGGCUUCGGUGGCGCGAUAGCGCCAACGUCCUCAACCUUCAAUGCAUCCCACCACAUGAUGAUGCCUGAAGAGCCUUAGUUUUUUG [U9A C12A C88U G127A], the “polymerase ribozyme fitness (log ratio)” value was -2.52. In the case of GACCAAUCAGCCCUCAGAGCUCGAGAACAUCUUCGGAUGCAGAGGAGGCAGGCUUCGGUGGCGCGAUAGCGCCAACGUCCUCAACCUCCAAUGCAUCCCACCACAUGAUGAUGCCUGAGGAGCCUUGGUUUUUUG [U9A A119G], the “polymerase ribozyme fitness (log ratio)” value is reported as 0.948. For GACCAAUCAGUCCUCAGAGCUCGAGAACAUCUUCGGAUGAAGAGGAGGCAGGCUUCGGUGGCGCGAUAGCGCCAACGUCCUCAACCUCCAAUGCAUCCCACCACAUGAUGAUGCCUGAAGAGCCUUGGUUUUUGG [U9A C11U C40A U134G], the “polymerase ribozyme fitness (log ratio)” value was -0.696. For GACCAAUCAGCCCUCAGAGCUCGAGAACAUCUUCGGAUGCAGAGGGGGCAGGGUUCGGUGGCGCGAUAGCGUCAACGUCCUAAACCUCCAAUGCAUCCCACCACAUGAUGAUUCCUGAAGAGCCUUGGUUUUUUG [U9A A46G C53G C72U C82A G113U], the “polymerase ribozyme fitness (log ratio)” value was -1.9. With GACCAAUCAGCCCUCAGAGCUCGAGAACAUCUUCGGAUGCAGUGGAGGCCGGCUUCGGUGGCGCGAUAGCGCCAACGUCCUCAACCUCCAAUGCAUCCCACCACAUGAUGAUGCCUGAAGAGCCUUGGUUUUUUG [U9A A43U A50C] the “polymerase ribozyme fitness (log ratio)” value was -1.66. For GACCAAUCAGUCCUCAGAGCUCGAGAACAUCUUCGGAUGCAGAGGAGGCAGGCUUCGGUGGCGCGAUAGCGCCAAUGUCCUCACCCUCCAAUGCAUCCCACCACAUGAUGAUGCCUGAAGAGCCUUGGUUUUUUG [U9A C11U C76U A84C], the “polymerase ribozyme fitness (log ratio)” value was -0.377. With GACCAAUCAGCCCUCAGAGCUCGAGAACAUCUUCGGAUGCAGAGGAGGCAGGCUUCGGUGGCGCGAUAGCGCCAACGUCCUCAACCUCCAAUGCAUCCCACCACCUGAUGAUGCCUGAAGAACCUUGGUUUUUUG [U9A A105C G122A] the “polymerase ribozyme fitness (log ratio)” value was -1.54. For GACCAAUCAGUCCUCAGAGCUCGAGAACAUCUUCGGAUGCAGAGGAGGCAGGCUUCGGUGGCGCGCUAGCGCCAACGUCCUCAACCUCCAAUGCAUCCCACCACAUGAUGAUGCCUUAAGAGCCUUGGUUUUUUG [U9A C11U A66C G117U], the “polymerase ribozyme fitness (log ratio)” value was -5.04. With GACCAAUCAGCUCUCAGAGCUCGAGAACAUCUUCGGAUGCAGAGGAGGCAGGCUUCGGUGGCGCGAUAGCGCCAACGUCCUCAACCUCCAAUGCAUCCCACCACAUGAUGAUGCCUGAAGAGCCUUGGUUUUUUG [U9A C12U] the “polymerase ribozyme fitness (log ratio)” value was -0.242. For GACCAAUCAGCCCUCAGAGCUCGAGAACAUCUUCGGUUGCAGAGGAGGCAGGCUUCGGUGGCGCGAUAGCGCCAACGUCCGCAACCUCCAAUGCAUCCCACCACAUGAUGAUGCCUGAAGAGCCUUGGUUUUUUG [U9A A37U U81G], the “polymerase ribozyme fitness (log ratio)” value was -2.86. With GACCAAUCAGCCCUCAGAGCUCGAGAACAUCUUCGGAUGCAGAGGCGGCCGGCUUCGGUGUCGCGAUAGCGCCAACGUCCUGAACCUCCAAUGCAUCCCACCACAUGAUGAUGCCUGAAGAGCCUUGGUUUUUUG [U9A A46C A50C G61U C82G] the “polymerase ribozyme fitness (log ratio)” value was -1.26. In the case of GACCAAUCAGCCCUCAGAGCUCGAGAACAUCUUCGGAUGCAGAGGUGGCAGGCUUCGGUGGCGCGAUAGCGCCAACCUCCUCAACCUCCAAUGCAUCCCACCACAUGAUGAUGCCUGAAGAACCUUGGUUUUUUG [U9A A46U G77C G122A], the “polymerase ribozyme fitness (log ratio)” value is reported as -0.702. In the case of GACCAAUCAGCCCUCAGAGCUCGAGAACAUCUUCGGAUGCAGAGGGGGCAGGGUUCGGUGGCGCGAUAGCGCCAACGUCCUCAACCUCCAAUGCAUCCCACCACAUGAUGAUUCCUGAAGAGCCUUGGUUUUUUG [U9A A46G C53G G113U], the “polymerase ribozyme fitness (log ratio)” value is reported as -1.54.
